Measurements from patent US20230174627A1 (published 2023).

Target: T1, recombinant EBOV GP (Ebola virus (EBOV), UniProt Q05320 33-650)
T1 sequence: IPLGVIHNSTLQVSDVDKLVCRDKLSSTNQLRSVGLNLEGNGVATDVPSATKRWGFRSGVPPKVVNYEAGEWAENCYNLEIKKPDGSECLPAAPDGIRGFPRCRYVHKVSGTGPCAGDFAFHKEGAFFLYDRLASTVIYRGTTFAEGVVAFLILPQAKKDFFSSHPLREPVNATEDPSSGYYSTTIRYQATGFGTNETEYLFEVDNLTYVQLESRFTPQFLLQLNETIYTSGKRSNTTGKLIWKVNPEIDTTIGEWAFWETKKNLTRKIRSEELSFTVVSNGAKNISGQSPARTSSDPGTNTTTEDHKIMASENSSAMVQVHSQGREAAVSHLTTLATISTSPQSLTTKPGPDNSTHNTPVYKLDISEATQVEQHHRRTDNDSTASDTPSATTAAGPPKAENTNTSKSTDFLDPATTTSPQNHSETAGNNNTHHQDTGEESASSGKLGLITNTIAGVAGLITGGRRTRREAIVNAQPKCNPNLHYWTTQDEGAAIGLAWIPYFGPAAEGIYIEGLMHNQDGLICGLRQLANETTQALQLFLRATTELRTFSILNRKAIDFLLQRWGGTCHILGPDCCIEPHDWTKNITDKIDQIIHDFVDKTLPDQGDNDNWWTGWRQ
Assay: ELISA on plates coated with recombinant EBOV GP

B1: X10B1 human IgG1 chimeric mAb (antibody, V domains shown)
VH: EVQLLESGPSLVKPSETLTLTCAVSGASISGDYLNWIRQPPGKGLEWIGGIFGSGGSTDYSPSFKSRVTISTDTSKNQFSLKLTSMTTADTAVYFCATALRGARFDAFDFWGQGRRV
VL: DIELTQSPATLSLSPGERATLSCRASQSVSTYLAWYQKKPGQAPRLLFYGASNRATGIPDRFSGRRSGTDFTLTISSLEPEDVGVYYCQQYNKWNSFGQGTKVEIK
- binding result: no binding

B2: 16F6 human IgG1 chimeric mAb (antibody, V domains shown)
VH: EVQLVESGGGLVTPGGSLKLSCAASGFAFNYYDMFWVRQNTEKRLEWVAYINSGGGNTYYPDTVKGRFTISRDNAKKTLFLQMSSLRSEDTAMYYCARQLYGNSFFDYWGQGTSLTV
VL: DIVMTQSHKFMSTSVGDRVTITCKASQDVTTAVAWYQQKPGHSPKLLIYWASTRHTGVPDRFTGSGSGTDFTLTLNSVQAEDLALYYCQQHYSTPLTFGAGTKLEL
- binding result: no binding

B3: 17F6 human IgG1 chimeric mAb (antibody, V domains shown)
VH: DVQLQESGPGLVKPSQTVSLTCTVTGISITAGNYRWSWIRQFPGNKLEWIGYIYYSGTIAYNPSLTSRTAITRDSSKNQFFLEMNSLTAEDTATYYCARDRGWLLLDYWGQGTTLTVSS
VL: DVLMTQTPLSLPVSLGDQASISCRSSQTIVHSNGNTYLEWYLQKPGQSPKLLIYKVSSRFSGVPDRFSGSGSGTDFTLKISRVEAEDLGVYYCFQGSHFPYTFGGGTKLEIKR
- binding result: no binding

B4: X10H2 human IgG1 chimeric mAb (antibody, V domains shown)
VH: QVQLEQSGAEVKKPGTSVKVSCKASGFTFGSDAISWVRQAPGQGLEWMGVIIPVVGARTYAEKFQGRITITADTSTSTVFMDLSSIRSDDTAVYYCAREGARAATGHYKSMDIWGRGTLV
VL: EIELTQSPSSLYASVGDKVTITCRASQGISTYLNWYQQKPGKAPKLLIYAASSLQSGVPSRFSGSGSGTEFTLTISSLQPEDFAAVYCQQYNSYPRTFGQGTKVEIK
- binding result: no binding

B5: X10F3 human IgG1 chimeric mAb (antibody, V domains shown)
VH: QVQLEQSGAEVKKPGTSVKVSCKASGFFTFGSDAISWVRQAPGQGLEWMGVIIPVVGARTYAEKFQGRITITADTSTSTVFMDLSSLRSDDTAVYYCAREGARAATGHYKSMDIWGRGRTLV
VL: ELQMTQSPSSLSASVGDRVTITCRASQDIGPFLNWYQHKPGKPPKLLIYDVSNLQDGVPSTFSGSGSGTDFTLTISNLQPEDFATYYCLHYANYPRTFGPGTKVEIK
- binding result: no binding

B6: X10B6 human IgG1 chimeric mAb (antibody, V domains shown)
VH: QVQLEQSGAEVKKPGTSVKVSCKASGFFTFGSDAISWVRQAPGQGLEWMGVIIPVVGARTYAEKFQGRITITADTSTSTVFMDLSSLRSDDTAVYYCAREGARAATGHYKSMDIWGRGRTLV
VL: ELLMTQSPSSLSASVGDRVTITCRASQGISTYLSWFQQKPGKPPKLLIYLTSSLEDGVPSRFSGAGSGTEFTLTISNLQPEDFASYYCLQYQSYPRTFGPGTKVEIK
- binding result: no binding
